From patent publication US20080131465A1, “Group a Streptococcus Crge Protein” (priority 2004, published 2008)

How the values were obtained:
Streptococcus pneumoniae = experiment: antimicrobial assay on Streptococcus pneumoniae; assay type: cell-based
Description: (§1) The mutant was obtained using allelic exchange gene replacement mutagenesis. Positive clones were confirmed by PCR and used for further experiments. Quantitative real time PCR confirmed the absence of crgR mRNA in the mutant. ΔcrgR mutant cathelicidin resistance was tested in a bacterial killing assay. Bacteria were grown in THB to OD600 0.2 and diluted in […] Tris-HCl, pH7.5, containing 5 mM glucose. 1 ml of bacteria (˜10^6 cfu) were incubated together with different concentrations of cathelicidins for 1 hour at 37° C. with no agitation. The bactericidal activity was assessed by plating serial dilutions of the incubation mixtures on THY-blood agar.
In order to see if a similar mechanism of action was found in other bacteria encoding heterologous proteins, the antimicrobial assay was carried out as described above, except using Streptococcus pneumoniae. […] The experiment was repeated by adding 70 μg of native Spy1542 in addition to 0.4 μM, 0.8 μM or 1.6 μM of LL-37. In this second experiment, 100% survival at 0.4 μM was noted. Therefore Spy1542 appears to be able to inhibit cathelicidin action also in heterologous systems

[1] = test system: WT and Δspy1542 mutant strains; experiment: FACS analysis of LL-37 localised on the bacterial surface; assay type: cell-based, Streptococcus pyogenes; settings: 0.8 μM LL-37; WT versus Δspy1542 mutant; 5 or 10 min at 37° C.
Description: An experiment was carried out to see if LL-37 bound to the surface of the bacteria. 0.8 μM LL-37 was added to the bacteria in a method similar to that for the bacterial killing assay. The amount of LL-37 localised on the bacterial surface was then compared for WT and Δspy1542 mutant strains by FACS analysis. […] This “protective” effect also increases with time. The WT strains therefore appear to be shielded against LL-37.

[2] = test system: ΔcrgR mutant of GAS strain SF370; assay type: cell-based, Streptococcus pyogenes; settings: 1 hour at 37° C., ~10^6 cfu
Description: as §1

GAS strain SF370 WT = assay type: cell-based, Streptococcus pyogenes; settings: 1 hour at 37° C., ~10^6 cfu
Description: as §1

[3] = test system: Wild-type, ΔcrgR and ΔcrgR/Δspy1542-43 strains challenged with cathelicidin; experiment: bacterial killing assay with purified Spy1542 added to the medium; assay type: cell-based, Streptococcus pyogenes; settings: different concentrations of purified Spy1542
Description: The involvement of Spy1542 in the resistance mechanism to antimicrobial peptides was investigated further by cloning and expressing Spy1542 as a native protein. The expressed protein was purified by using a Q sepharose column followed by Cu chelating and finally, gel filtration (FIG. 7). The purified protein was successively used to study its effect when added to the medium in bacterial-killing assays.
Wild-type; ΔcrgR and ΔcrgR/Δspy1542-43 strains were challenged with 0.4 μM LL-37 or CRAMP, and added with different concentrations of the purified protein.
In addition, Spy1542 protein was also able to enhance in a dose dependent manner the survival rate of the ΔcrgR mutant (FIG. 8a).

[4] = test system: bacteria challenged with LL-37; experiment: pre-treatment of bacteria with Spy1542, washing, then LL-37 challenge; assay type: cell-based, Streptococcus pyogenes; settings: Spy1542 added, bacteria pelleted, washed, resuspended; then 0.4 μM LL-37
Description: A further experiment was therefore carried out to confirm that the effect of Spy1542 was indirect. Spy1542 was added to the bacteria. The bacteria were then pelleted, washed and resuspended. 0.4 μM LL-37 was then added to the suspension.

LL-37 = molecular target: T1, LL-37 (Homo sapiens, UniProt P49913); experiment: mass spectrometry of LL-37 in supernatant after Spy1542 treatment; settings: WT strain, 0.4 μM LL-37, after 30 minutes
T1 construct: release the mature C-terminal antimicrobial peptide
T1 sequence (P49913 134-170 limits assumed): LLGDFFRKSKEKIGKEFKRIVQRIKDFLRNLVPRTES
Description: Spy1542 was therefore used to treat the WT strain challenged with 0.4 μM LL-37 in a process similar to the bacterial killing assay described above. After 30 minutes, the bacteria were pelleted and the supernatant was analysed. It was discovered by mass spectrometry that the LL-37 in the supernatant was unmodified by the action of Spy1542 (FIG. 13).

## CC[C@H](C)[C@H](NC(=O)[C@H](CCCCN)NC(=O)[C@H](CCC(=O)O)NC(=O)[C@H](CCCCN)NC(=O)[C@H](CO)NC(=O)[C@H](CCCCN)NC(=O)[C@H](CCCNC(=N)N)NC(=O)[C@H](Cc1ccccc1)NC(=O)[C@H](Cc1ccccc1)NC(=O)[C@H](CC(=O)O)NC(=O)CNC(=O)[C@H](CC(C)C)NC(=O)[C@@H](N)CC(C)C)C(=O)NCC(=O)N[C@@H](CCCCN)C(=O)N[C@@H](CCC(=O)O)C(=O)N[C@@H](Cc1ccccc1)C(=O)N[C@@H](CCCCN)C(=O)N[C@@H](CCCNC(=N)N)C(=O)N[C@H](C(=O)N[C@H](C(=O)N[C@@H](CCC(N)=O)C(=O)N[C@@H](CCCNC(=N)N)C(=O)N[C@H](C(=O)N[C@@H](CCCCN)C(=O)N[C@@H](CC(=O)O)C(=O)N[C@@H](Cc1ccccc1)C(=O)N[C@@H](CC(C)C)C(=O)N[C@@H](CCCNC(=N)N)C(=O)N[C@@H](CC(N)=O)C(=O)N[C@@H](CC(C)C)C(=O)N[C@H](C(=O)N1CCC[C@H]1C(=O)N[C@@H](CCCNC(=N)N)C(=O)N[C@H](C(=O)N[C@@H](CCC(=O)O)C(=O)N[C@@H](CO)C(=O)O)[C@@H](C)O)C(C)C)[C@@H](C)CC)C(C)C)[C@@H](C)CC [LL-37]
Streptococcus pneumoniae; increasing concentrations of LL-37
  killing of bacteria: shown to kill the bacteria
[1]
  amount of LL-37 localised on the bacterial surface: WT strain had less LL-31 on the bacterial surface
[2]
  concentration necessary to kill 50% of bacterial cells (LD50): 0.28 µM
GAS strain SF370 WT
  concentration necessary to kill 50% of bacterial cells (LD50): 0.103 µM

B1: Spy1542: Streptococcus pyogenes protein encoded by crgE (spy1542), cloned, expressed as native protein and purified; confers resistance to cathelicidins (protein)
chain: MESYITPKHQEACVAAIKQIVSYPSVCHEGENGTPFGQAIQDILEATLDLCQGLGFHTYIDPEGYYGYAELGDQKEVLAILCHLDVVPEGDRQLWKTDPFDCVEADGCLFGRGTQDDKGPTMMALFATKALIDAGVTFNKRIRFIFGTDEETLWRCMNRYNDVEEQATFGFAPDSSFPLTYAEKGLLQAKLVGKGSDKLSLEIGQAYNVVPARASYQGDKLEALQKELDKLGFEYVVKEGELTVYGLAQHAKDAPDGINAMIRLAKALVVLEPNKTLDFLANVIDEDGRALNIFGRIEDEPSGKLSFNAAGLTLTKDKAEIRLDIRIPVLADKEKLVQQLSQKAQEYGLTYEEFDYLAPLYVPLDSELVTTLLSVYRKKTGDQSPAQSSGGATFARTMKNCVAFGALFPDAVQTEHQENEHIVLADAYRAMDIYAEAIYRLTR
modifications: Streptococcus pyogenes
notes: Streptococcus pyogenes protein encoded by crgE (spy1542), cloned, expressed as native protein and purified; confers resistance to cathelicidins
Streptococcus pneumoniae; 70 μg native Spy1542 added with 0.4 μM LL-37
  survival: 100%
[3]; 0.4 μM CRAMP
  inhibition of CRAMP bactericidal activity: inhibited cathelicidin bactericidal activity in a dose-dependent fashion
[3]; 0.4 μM LL-37
  inhibition of LL-37 action (number of colonies, survival rate): inhibits LL-37 action in a dose dependent manner
[4]
  protective effect against LL-37 after pre-treatment and washing: protective effect of Spy1542 was maintained and that it was dose dependent
LL-37
  modification of LL-37 in the supernatant by Spy1542: unmodified
